Assay results taken from patent US20210347908A1 (ELPISCIENCE SUZHOU BIOPHARMA, published 2021).
Blank lines part the entries; values can stand above or below the binder they belong to.

Legend:
[1] = molecular target: T1, 6×His tagged C57BL/6 mouse SIRPα ECD recombinant protein (mouse (C57BL/6), UniProt P97797 32-373); assay: ELISA on coated mouse SIRPα (C57BL/6) ECD, antibody at 10, 1 and 0.1 ug/ml [right panel mSIRPα ECD (C57BL/6]
T1 construct: extracellular domain; bought; also called mSIRPα (C57BL/6); mouse SIRPα (C57BL/6) ECD
T1 sequence: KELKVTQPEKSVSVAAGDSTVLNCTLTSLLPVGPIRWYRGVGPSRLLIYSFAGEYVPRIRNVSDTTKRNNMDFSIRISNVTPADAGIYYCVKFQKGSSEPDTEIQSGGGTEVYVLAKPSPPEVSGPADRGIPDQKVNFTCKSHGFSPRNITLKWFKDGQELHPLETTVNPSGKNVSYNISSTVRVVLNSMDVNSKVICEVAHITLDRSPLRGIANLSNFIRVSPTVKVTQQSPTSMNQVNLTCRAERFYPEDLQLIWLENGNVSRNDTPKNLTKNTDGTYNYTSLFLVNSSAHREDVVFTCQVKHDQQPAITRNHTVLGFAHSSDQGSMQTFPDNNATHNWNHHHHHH

[2] = molecular target: T2, full length C57BL/6 mouse SIRPα stably expressed on CHOK1 cells (mouse (C57BL/6), UniProt P97797 32-513); assay: FACS on CHOK1-C57BL/6 mouse SIRPα-2.22 cells
T2 construct: whole, on cells; also called CHOK1-C57BL/6 mouse SIRPα-2.22 cells
T2 sequence (looked up): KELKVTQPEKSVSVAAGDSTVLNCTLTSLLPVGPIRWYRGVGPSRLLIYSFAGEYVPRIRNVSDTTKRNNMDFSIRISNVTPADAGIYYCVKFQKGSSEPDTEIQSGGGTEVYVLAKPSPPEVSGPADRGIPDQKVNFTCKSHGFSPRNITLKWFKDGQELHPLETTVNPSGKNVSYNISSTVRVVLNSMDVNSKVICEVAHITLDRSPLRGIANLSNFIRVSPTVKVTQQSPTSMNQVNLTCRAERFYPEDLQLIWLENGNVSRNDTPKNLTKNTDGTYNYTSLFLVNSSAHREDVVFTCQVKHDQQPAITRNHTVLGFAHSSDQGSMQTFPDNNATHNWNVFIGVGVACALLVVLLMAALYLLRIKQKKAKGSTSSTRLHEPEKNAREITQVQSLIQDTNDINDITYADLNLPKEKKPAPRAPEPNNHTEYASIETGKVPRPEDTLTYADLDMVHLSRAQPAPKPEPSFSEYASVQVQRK
Method: Species cross reactivity of the purified hybridoma antibodies against human, cyno and mouse SIRPα was determined by FACS assay using CHOK1-human SIRPα v1-1B4 cells, CHOK1-cyno SIRPα-2A2 cells, and CHOK1-C57BL/6 mouse SIRPα-2.22 cells, which stably expressing SIRPα protein. Briefly the antibodies were incubated with 2×10⁵ target cells at 4° C. for 1 hour. After washing, fluorescence labeled anti-mouse or anti-human IgG 2nd antibody (Life Technologies) was added and incubated at 4° C. for 1 hour. Geometric median fluorescence intensity was detected and EC₅₀ was calculated. In particular, it is noted, in contrast to the other antibodies tested in the same experiment, 060 cannot bind with cyno SIRPα and 035 has cross reactivity against C57BL/6 mouse SIRPα.

[3] = molecular target: T3, biotin labeled soluble human SIRPα v1 ECD recombinant protein (human, UniProt P78324 31-373, biotin labeled); assay: competitive ELISA, hSIRPα/CD47 blocking
T3 construct: extracellular domain
T3 sequence (P78324 31-373): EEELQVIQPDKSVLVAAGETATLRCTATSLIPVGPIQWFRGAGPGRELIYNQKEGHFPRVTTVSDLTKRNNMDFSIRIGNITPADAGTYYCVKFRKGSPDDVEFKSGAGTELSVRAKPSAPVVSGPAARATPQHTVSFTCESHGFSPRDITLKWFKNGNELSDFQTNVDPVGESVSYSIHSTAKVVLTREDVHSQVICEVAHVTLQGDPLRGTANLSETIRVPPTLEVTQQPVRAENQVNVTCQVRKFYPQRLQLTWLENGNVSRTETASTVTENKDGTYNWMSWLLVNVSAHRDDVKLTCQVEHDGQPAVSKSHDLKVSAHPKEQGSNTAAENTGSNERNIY

[4] = molecular target: T1, 6×His tagged C57BL/6 mouse SIRPα ECD …; assay: SPR (Biacore), antibody captured
Outline: (§1)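 Chimeric anti-SIRPα antibodies captured on CM5 via anti-human antibody kit; His-tagged SIRPα ECD proteins injected as dilution series at 30 μl/min for 180 s, dissociation 400 s, regeneration with 3 M MgCl₂. Ka, Kd and KD from 1:1 binding model fits.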

[5] = molecular target: T4, 6×His tagged human SIRPα v1 ECD recombinant protein (human, UniProt P78324 31-373); assay: SPR (Biacore), antibody captured
T4 construct: extracellular domain; bought; also called hSIRPα V1 (SPR antigen)
T4 sequence (P78324 other isoform, or with tags, fused parts or gaps): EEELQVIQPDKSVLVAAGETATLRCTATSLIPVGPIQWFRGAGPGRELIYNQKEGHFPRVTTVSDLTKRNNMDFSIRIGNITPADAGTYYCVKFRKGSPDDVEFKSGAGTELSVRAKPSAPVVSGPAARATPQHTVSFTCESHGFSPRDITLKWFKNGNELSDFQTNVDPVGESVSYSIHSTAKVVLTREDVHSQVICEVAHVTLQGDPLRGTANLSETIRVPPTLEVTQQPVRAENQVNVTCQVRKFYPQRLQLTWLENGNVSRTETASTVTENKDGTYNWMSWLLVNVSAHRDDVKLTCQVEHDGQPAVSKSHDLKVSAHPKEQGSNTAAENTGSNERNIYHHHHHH
Outline: as §1

[6] = molecular target: 6×His tagged human SIRPα v2 ECD recombinant protein (human); assay: SPR (Biacore), antibody captured, 6×His tagged human SIRPα v2 ECD as analyte
Chain of 6×His tagged human SIRPα v2 ECD recombinant protein (human) (chain, as listed by the source): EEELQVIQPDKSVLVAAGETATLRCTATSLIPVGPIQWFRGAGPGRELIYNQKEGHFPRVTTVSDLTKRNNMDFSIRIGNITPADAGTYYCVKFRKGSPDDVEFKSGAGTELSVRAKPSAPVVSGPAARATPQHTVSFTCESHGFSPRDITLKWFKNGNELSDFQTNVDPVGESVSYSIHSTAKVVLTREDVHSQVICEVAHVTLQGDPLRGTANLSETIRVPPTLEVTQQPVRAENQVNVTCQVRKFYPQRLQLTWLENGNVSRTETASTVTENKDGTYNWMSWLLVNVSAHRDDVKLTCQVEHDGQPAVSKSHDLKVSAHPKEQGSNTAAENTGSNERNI
Method: Anti-SIRPα chimeric antibodies were characterized for binding affinity against human SIRPα v1, human SIRPα v2 and C57BL/6 mouse SIRPα using Biacore (GE). Briefly the antibodies to be tested were captured to CM5 chip (GE) using Human Antibody Capture Kit (GE). The antigens of 6×His tagged human SIRPα v1, human SIRPα v2 and C57BL/6 mouse SIRPα ECD recombinant proteins were serially diluted for multiple doses and injected at 30 μl/min for 180 s. Buffer flow was maintained for dissociation of 400 s. 3 M MgCl₂ was used for chip regeneration. The association and dissociation curves were fit with 1:1 binding model, and the Ka/Kd/KD values for each antibody were calculated.
hu035.01, the first version of humanized 035, was characterized by FACS assay using CHOK1-human SIRPα v1-1B4 cells, ELISA assay using Fc tagged human SIRPα v2 ECD recombinant protein and SPR analysis using the antigen of 6×His tagged human SIRPα v2 ECD recombinant protein (refer to methods described in Example 3.4, Example 3.3 and Example 4.3). […] In particular, hu035.01 cannot be detected to bind with C57BL/6 mouse SIRPα ECD in ELISA assay possibly due to reduced binding activity (FIG. 5B).

- binding result [1]: no binding (tested: 10 ug/ml)
B1: chimeric antibody 032c (antibody, V domains shown)
VH: EVRLEESGGGLVQPGGSMKLSCVVSGFTFRNYWMNWVRQSPERGLEWIAEITLKSNTYATHYAESVKGRFAISRDDSKSSFYLQMNDLRPEDTGIYYCTTFTKVVADWHLDVWGAGTTVTVSS
VL: DVLMTQTPLSLPVNLGDQASISCRSSQNIVHSNGNTYLEWYLQKPGQSPKLLIYKVSNRFSGVPDRFSGSGSGTDFTLRISRVEAEDLGVYYCFQGSHVPFTFGSGTKLEIK

- EC50 (read off the curve) [2]: ~0.3 µg/mL
- IC50 [3]: 1.03 nM
- Kd [4]: 5270 nM
- koff [4]: 0.0247 s⁻¹
- kon [4]: 4690 M⁻¹ s⁻¹
- Kd [5]: 1.89 nM
- koff [5]: 0.000274 s⁻¹
- kon [5]: 145000 M⁻¹ s⁻¹
- koff [6]: 5.73e-05 s⁻¹
- kon [6]: 93500 M⁻¹ s⁻¹
B2: chimeric antibody 035c (antibody, V domains shown)
VH: QIQLVQSGPELRKPGETVKISCKASGYSFTNYAMNWVKQAPGKVLKWMGFINTYTGEPTYADDFKGRFAFSLETSASTAYLQINNLKNEDTATYFCTRTRGYYDFDGGAFDYWGQGTSLTVSS
VL: DIVMTQSQKFMSTSIGDRVSVTCKASQNVGTHLAWYQQKPGQSPKALIFSASYRYIGVPDRFTGSGSGTDFTLTITNVQSEDLAEYFCQQYNTYPLTFGAGTKLELK
